Results: patent US20240360242A1 (KISOJI BIOTECHNOLOGY, published 2024)
Read-outs that look alike come from different tables or passages of the source.

T1: recombinant human TROP2 extracellular domain (aa 1-274) comprising His tag (human, UniProt P09758 27-274)
T1 construct: Used here for all assays on recombinant human TROP2 (ELISA, immunoblot, SPR, crystal), although only some of them name the catalogue number; also called human recombinant TROP2; recombinant human TROP2 protein; not shown: His tag
T1 sequence: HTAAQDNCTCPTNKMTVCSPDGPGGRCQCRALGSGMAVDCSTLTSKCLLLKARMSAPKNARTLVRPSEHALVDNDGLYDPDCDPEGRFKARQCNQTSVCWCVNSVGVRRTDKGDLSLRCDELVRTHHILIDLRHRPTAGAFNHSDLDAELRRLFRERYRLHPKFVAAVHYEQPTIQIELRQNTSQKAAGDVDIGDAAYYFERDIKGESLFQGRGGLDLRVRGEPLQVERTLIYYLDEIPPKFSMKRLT


Assays:
[1] = biological target: T1, recombinant human TROP2 extracellular …; assay: ELISA, coated rh TROP2
Description: (§1) Human TROP2 recombinant proteins were coated on 96-well ELISA plates at the concentration of 1 μg/mL. Plates were covered with adhesive plate cover and stored at 4° C. overnight. The next day, plates were washed 3× with washing buffer (PBS with 0.1% Tween™ 20). Plates were blocked with 2% fat-free BSA in washing buffer for 1 hour at 37° C. During the incubation time, the TROP2 reference antibodies, as well as the humanized variants, were diluted in the blocking buffer to the indicated concentrations. […] After blocking, the blocking buffer was removed from the wells and 100 μL of anti-TROP2 sdAbs dilutions were transferred to the corresponding wells. Plates were covered with adhesive plates cover and incubated at 37° C. for 1 hour. During the primary antibody incubation, the secondary antibody (goat anti-human IgG, HRP conjugated) was diluted 1 in 5000 with the blocking buffer. Plates were washed 3× with blocking buffer, followed by secondary antibody incubation for another 1 hour at 37° C. After the secondary antibody incubation, plates were washed 3× with washing buffer and added with 100 μL of ELISA chemiluminescent substrate (Thermofisher). The luminescence signal was detected by SpectraMax i3x at […].

[2] = biological target: T1, recombinant human TROP2 extracellular …; assay: ELISA, coated rh TROP2; remark: listed apart in the source
Description: as §1

Row | Binder | EC50 [1] [nM] | EC50% to KD005 [1] | EC50 [2] [nM]
1 | KD030 (antibody, V domains shown, KD002 humanized variant) VH: QVQLQESGGGLVQPGGSLRLSCAASGFPFSSADMSWVRQAPGKGLEWVSYINADGSKTYYADTVKGRFTISRDNSKNTLYLQMNSLRAEDTAVYRCARAKLTDTHYVEDYWGQGTMVTVSS |  |  | 0.12
2 | KD029 (antibody, V domains shown, KD002 humanized variant) VH: QVQLQESGGGLVQPGGSLRLSCAASGFPFSSADMSWVRQAPGKGPEWVSYINADGSKTYYPDTVKGRFTISRDNSKNTLYLQMNNLRAEDTALYRCARAKLTDTHYVEDYWGQGTMVTVSS |  |  | 0.16
3 | KD034 (antibody, V domains shown, KD002 humanized variant) VH: QVQLQESGGGLVQPGGSLRLSCAASGFPFSSADMSWVRQAPGKGLEWVSYINADGSKTYYADTVKGRFTISRDNSKNTLYLQMNSLRAEDTAVYYCARAKLTDTHYVEDYWGQGTMVTVSS |  |  | 0.13
4 | KD031 (antibody, V domains shown, KD002 humanized variant) VH: EVQLQESGGGLVQPGGSLRLSCAASGFPFSSADMSWVRQAPGKGLEWVSYINADGSKTYYADTVKGRFTISRDNSKNTLYLQMNSLRAEDTAVYRCARAKLTDTHYVEDYWGQGTMVTVSS |  |  | 0.11
5 | KD027 (antibody, V domains shown, KD002 humanized variant) VH: QVQLQESGGGMVQVGGSLRLSCAASGFPFSSADMSWVRQAPGKGPEWVSYINADGSKTYYPDSVKGRFTISRDNAKNTLYLQMNSLKPEDTAVYRCARAKLTDTHYVEDYWGQGTQVTVSS |  |  | 0.09
6 | KD028 (antibody, V domains shown, KD002 humanized variant) VH: EVQLLESGGGLVQPGGSLRLSCAASGFPFSSADMSWVRQAPGKGLEWVSVINADGSKTYYADTVKGRFTISRDNSKNTLYLQMNSLRAEDTAVYYCARAKLTDTHYVEDYWGQGTMVTVSS |  |  | 0.14
7 | KD023 (antibody, V domains shown, KD002 humanized variant) VH: QVQLVESGGGLVQPGGSLRLSCAASGFPFSSADMSWVRQAPGKGPEWVSYINADGSKTYYPDTVKGRFTISRDNAKNTLYLQMNSLRAEDTAVYYCARAKLTDTHYVEDYWGQGTQVTVSS |  |  | 0.08
8 | KD022 (antibody, V domains shown, KD002 humanized variant) VH: EVQLVESGGGLVQPGGSLRLSCAASGFPFSSADMSWVRQAPGKGPEWVSYINADGSKTYYADTVKGRFTISRDNAKNTLYLQMNSLRAEDTAVYYCARAKLTDTHYVEDYWGQGTQVTVSS |  |  | 0.07
9 | KD024 (antibody, V domains shown, KD002 humanized variant) VH: QVQLVESGGGLVQPGGSLRLSCAASGFPFSSADMSWVRQAPGKGPEWVSYINADGSKTYYPDTVKGRFTISRDNAKNTLYLQMNSLRAEDTAVYRCARAKLTDTHYVEDYWGQGTQVTVSS |  |  | 0.09
10 | KD021 (antibody, V domains shown, KD002 humanized variant) VH: EVQLVESGGGLVQPGGSLRLSCAASGFPFSSADMSWVRQAPGKGLEWVSYINADGSKTSYADTVKGRFTISRDNAKNTLYLQMNSLRAEDTAVYYCARAKLTDTHYVEDYWGQGTLVTVSS |  |  | 4.3
11 | KD032 (antibody, V domains shown, KD002 humanized variant) VH: QVQLLESGGGLVQPGGSLRLSCAASGFPFSSADMSWVRQAPGKGLEWVSYINADGSKTYYADTVKGRFTISRDNSKNTLYLQMNSLRAEDTAVYRCARAKLTDTHYVEDYWGQGTMVTVSS |  |  | 0.15
12 | KD033 (antibody, V domains shown, KD002 humanized variant) VH: QVQLQESGGGLVQPGGSLRLSCAASGFPFSSADMSWVRQAPGKGLEWVSVINADGSKTYYADTVKGRFTISRDNSKNTLYLQMNSLRAEDTAVYRCARAKLTDTHYVEDYWGQGTMVTVSS |  |  | 0.13
13 | KD025 (antibody, V domains shown, KD002 humanized variant) VH: QVQLVESGGGLVQVGGSLRLSCAASGFPFSSADMSWVRQAPGKGPEWVSYINADGSKTYYPDTVKGRFTISRDNAKNTLYLQMNSLKPEDTAVYRCARAKLTDTHYVEDYWGQGTQVTVSS |  |  | 0.11
14 | KD026 (antibody, V domains shown, KD002 humanized variant) VH: QVQLQESGGGMVQVGGSLRLSCAASGFPFSSADMSWVRQAPGKGPEWVSYINADGSKTYYPDTVKGRFTISRDNAKNTLYLQMNSLKPEDTAVYRCARAKLTDTHYVEDYWGQGTQVTVSS |  |  | 0.1

Other lines, results leading:

Row | EC50 [1] [nM] | EC50% to KD005 [1] | EC50 [2] [nM] | Binder
15 | 0.14 | 1.75 ratio to KD005 |  | KD047 (antibody, V domains shown, KD005 humanized variant) VH: QVQLLESGGGLVQPGGSLRLSCAASGFTFSGSDMSWVRQAPGKGPEWVSYITSGGTTYYADTVKGRFTISRDNSKNTLYLQMNSLRAEDTAVYRCAKSRLTDSHYVEDAWGQGTLVTVSS
16 | 0.12 | 1.5 ratio to KD005 |  | KD061 (antibody, V domains shown, KD005 humanized variant) VH: QVQLQESGGGLIQPGGSLRLSCAASGFTFSGSDMSWVRQAPGKGLEWVSYITSGGTTYYADTVKGRFTISRDNSKNTLYLQMNSLRADDTAVYRCAKSRLTDSHYVEDAWGQGTLVTVSS
17 | 0.14 | 1.75 ratio to KD005 |  | KD064 (antibody, V domains shown, KD005 humanized variant with framework 2 changes) VH: QVQLQESGGGLIQPGGSLRLSCAASGFTFSGSDMSWYRQAPGKGREWVSYITSGGTTYYADTVKGRFTISRDNSKNTLYLQMNSLRAEDTAVYRCAKSRLTDSHYVEDAWGQGTLVTVSS
18 | 0.1 | 1.25 ratio to KD005 |  | KD059 (antibody, V domains shown, KD005 humanized variant) VH: QVQLQESGGGLIQPGGSLRLSCAASGFTFSGSDMSWVRQAPGKGPEWVSYITSGGTTYYADTVKGRFTISRDNSKNTLYLQMNSLRAEDTAVYRCAKSRLTDSHYVEDAWGQGTLVTVSS
19 | 0.14 | 1.75 ratio to KD005 |  | KD062 (antibody, V domains shown, KD005 humanized variant) VH: QVQLQESGGGLIQPGGSLRLSCAASGFTFSGSDMSWVRQAPGKGLEWVSYITSGGTTYYADTVKGRFTISRDNSKNTLYLQMNSLRAEDTALYRCAKSRLTDSHYVEDAWGQGTLVTVSS
20 | 0.1 | 1.25 ratio to KD005 |  | KD053 (antibody, V domains shown, KD005 humanized variant) VH: QVQLQESGGGLIQPGGSLRLSCAASGFTFSGSDMSWVRQAPGKGPEWVSYITSGGTTYYPDTVKGRFTISRDNSKNTLYLQMNSLRADDTALYRCAKSRLTDSHYVEDAWGQGTLVTVSS
21 | 0.14 | 1.75 ratio to KD005 |  | KD049 (antibody, V domains shown, KD005 humanized variant) VH: QVQLQESGGGLVQPGGSLRLSCAASGFTFSGSDMSWVRQAPGKGPEWVSYITSGGTTYYPDTVKGRFTISRDNSKNTLYLQMNSLRAEDTAVYRCAKSRLTDSHYVEDAWGQGTQVTVSS
22 | 0.11 | 1.38 ratio to KD005 |  | KD060 (antibody, V domains shown, KD005 humanized variant) VH: QVQLQESGGGLIQPGGSLRLSCAASGFTFSGSDMSWVRQAPGKGLEWVSYITSGGTTYYPDTVKGRFTISRDNSKNTLYLQMNSLRAEDTAVYRCAKSRLTDSHYVEDAWGQGTLVTVSS
23 | 0.12 | 1.5 ratio to KD005 |  | KD063 (antibody, V domains shown, KD005 humanized variant) VH: QVQLQESGGGLIEPGGSLRLSCAASGFTFSGSDMSWVRQAPGKGLEWVSYITSGGTTYYADTVKGRFTISRDNSKNTLYLQMNSLRAEDTAVYRCAKSRLTDSHYVEDAWGQGTQVTVSS
24 | 0.12 | 1.5 ratio to KD005 |  | KD051 (antibody, V domains shown, KD005 humanized variant) VH: QVQLQESGGGLVQPGGSLRLSCAASGFTFSGSDMSWVRQAPGKGPEWVSYITSGGTTYYPDTVKGRFTISRDNAKNTLYLQMNSLKPDDTALYRCAKSRLTDSHYVEDAWGQGTQVTVSS
25 | 0.1 | 1.25 ratio to KD005 |  | KD058 (antibody, V domains shown, KD005 humanized variant) VH: QVQLQESGGGLIQPGGSLRLSCAASGFTFSGSDMSWVRQAPGKGLEWVSYITSGGTTYYADTVKGRFTISRDNSKNTLYLQMNSLRAEDTAVYYCAKSRLTDSHYVEDAWGQGTLVTVSS
26 | 0.11 | 1.38 ratio to KD005 |  | KD048 (antibody, V domains shown, KD005 humanized variant) VH: QVQLQESGGGLVQPGGSLRLSCAASGFTFSGSDMSWVRQAPGKGPEWVSYITSGGTTYYPDTVKGRFTISRDNSKNTLYLQMNSLRAEDTAVYYCAKSRLTDSHYVEDAWGQGTQVTVSS
27 |  |  | 0.12 | KD035 (antibody, V domains shown, KD002 humanized variant) VH: QVQLQESGGGLVQPGGSLRLSCAASGFPFSSADMSWVRQAPGKGPEWVSYINADGSKTYYADTVKGRFTISRDNSKNTLYLQMNSLRAEDTAVYRCARAKLTDTHYVEDYWGQGTMVTVSS
28 |  |  | 0.13 | KD036 (antibody, V domains shown, KD002 humanized variant) VH: QVQLQESGGGLVQPGGSLRLSCAASGFPFSSADMSWVRQAPGKGLEWVSYINADGSKTYYPDTVKGRFTISRDNSKNTLYLQMNSLRAEDTAVYRCARAKLTDTHYVEDYWGQGTMVTVSS
